# Test results reported in patent US20230303649A1 (published 2023).
# T1: IL-2R on human primary T cells (human, UniProt P01589 22-272; P14784 27-551; P31785 23-369)
# T1 sequence (looked up) 1: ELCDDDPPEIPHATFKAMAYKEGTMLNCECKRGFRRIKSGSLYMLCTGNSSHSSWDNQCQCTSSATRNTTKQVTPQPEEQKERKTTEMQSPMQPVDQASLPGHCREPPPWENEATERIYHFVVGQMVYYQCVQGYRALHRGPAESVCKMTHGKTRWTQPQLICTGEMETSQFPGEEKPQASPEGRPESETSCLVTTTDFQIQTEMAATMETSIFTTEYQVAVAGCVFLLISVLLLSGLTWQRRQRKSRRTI
# T1 sequence (looked up) 2: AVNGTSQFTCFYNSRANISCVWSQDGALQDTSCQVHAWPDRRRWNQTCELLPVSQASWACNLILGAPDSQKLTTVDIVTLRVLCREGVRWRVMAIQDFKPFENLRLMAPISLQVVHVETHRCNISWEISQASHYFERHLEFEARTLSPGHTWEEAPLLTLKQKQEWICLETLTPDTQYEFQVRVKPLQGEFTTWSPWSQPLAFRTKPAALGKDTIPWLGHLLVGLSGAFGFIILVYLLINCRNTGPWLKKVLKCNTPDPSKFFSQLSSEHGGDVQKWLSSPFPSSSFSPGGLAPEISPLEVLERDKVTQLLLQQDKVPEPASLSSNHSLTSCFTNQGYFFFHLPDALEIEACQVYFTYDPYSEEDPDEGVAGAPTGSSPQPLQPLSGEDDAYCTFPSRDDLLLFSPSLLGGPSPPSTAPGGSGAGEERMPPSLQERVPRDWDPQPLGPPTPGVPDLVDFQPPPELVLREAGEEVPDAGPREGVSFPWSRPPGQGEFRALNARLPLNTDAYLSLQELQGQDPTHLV
# T1 sequence (looked up) 3: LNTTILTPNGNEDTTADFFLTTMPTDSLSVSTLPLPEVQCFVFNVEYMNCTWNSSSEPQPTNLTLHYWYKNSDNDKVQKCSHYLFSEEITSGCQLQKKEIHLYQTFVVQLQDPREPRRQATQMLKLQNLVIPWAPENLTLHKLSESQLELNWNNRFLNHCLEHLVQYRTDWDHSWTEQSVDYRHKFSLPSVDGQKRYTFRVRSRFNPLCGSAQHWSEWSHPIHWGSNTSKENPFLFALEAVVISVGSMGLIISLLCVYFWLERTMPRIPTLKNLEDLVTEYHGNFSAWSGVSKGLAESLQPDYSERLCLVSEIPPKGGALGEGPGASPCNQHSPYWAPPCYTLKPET
# Molecular target: T1, IL-2R on human primary T cells
# Experiment: cell-based or functional assay
Binder,"CD8 EC50 (nM), STAT5 phosphorylation [nM]","Treg EC50 (nM), STAT5 phosphorylation [nM]","CD4 conv EC50 (nM), STAT5 phosphorylation [nM]","CD8 naïve EC50 (nM), STAT5 phosphorylation [nM]"
SEQ ID NO 11 (ligand) APTSSSTKKTQLQLEHLRLDLEMILNGINNYKNPKLTRMLTFKFYMPKKATELKHLQCLEEELKPLEEVLNLAQSKNFHLRPRDLISNINVIVLELKGSETTFMCEYADETATIVEFLNRWITFSTSIISTLT,650,3.96,,
SEQ ID NO 9 (ligand) APTSSSTKKTQLQLEHLLLDLQMILNGINNHKNPRLTRMLTFKFYMPKKATELKHLQCLEEELKPLEEALRLAPSKNFHLRPRDLISNINVIVLELKGSETTFMCEYADETATIVEFLNRWITFSQSIISTLT,589,0.05,2.14,822
SEQ ID NO 13 (ligand) APTSSSTKKTQLQLEHLLLDLQMILNGINNHKNPRLTRMLTFKFYMPKKATELKHLQCLEEELKPLEEALRLAPSKNFHLRPRDLISDINVIVLELKGSETTFMCEYADETATIVEFLNRWITFSQSIISTLT,8650,0.65,4160,8410
SEQ ID NO 15 (ligand) APTSSSTKKTQLQLEHLLLDLQMILNGINNHKNPRLTRMLTFKFYMPKKATELKHLQCLEEELKPLEEVLRLAPSKNFHLRPRDLISNINVIVLELKGSETTFMCEYADETATIVEFLNRWITFSQSIISTLT,28.4,0.01,2.52,29.8
SEQ ID NO 17 (ligand) APTSSSTKKTQLQLEHLRLDLQMILNGINNYKNPKLTRMLTFKFYMPKKATELKHLQCLEEELKPLEEVLNLAQSKNFHFDPRDVVSNINVFVLELKGSETTFMCEYADETATIVEFLNRWITFSTSIISTLT,10000,1000,1000,10000
SEQ ID NO 12 (ligand) APTSSSTKKTQLQLEHLRLDLEMILNGINNYKNPKLTRMLTFKFYMPKKATELKHLQCLEEELKPLEEVLNLAQSKNFHFDPRDVVSDINVFVLELKGSETTFMCEYADETATIVEFLNRWITFSTSIISTLT,650,200,,
SEQ ID NO 16 (ligand) APTSSSTKKTQLQLEHLRLDLEMILNGINNYKNPKLTRMLTFKFYMPKKATELKHLQCLEEELKPLEEVLNLAQSKNFHFDPRDVVSNINVFVLELKGSETTFMCEYADETATIVEFLNRWITFSQSIISTLT,1.68,0.03,1.31,1.81
SEQ ID NO 14 (ligand) APTSSSTKKTQLQLEHLLLDLQMILNGINNHKNPRLTRMLTFKFYMPKKATELKHLQCLEEELKPLEEVLNLAPSKNFHLRPRDLISNINVIVLELKGSETTFMCEYADETATIVEFLNRWITFSQSIISTLT,372,0.29,29.1,444

# Now from value to binder:
"CD8 EC50 (nM), STAT5 phosphorylation [nM]","Treg EC50 (nM), STAT5 phosphorylation [nM]","CD4 conv EC50 (nM), STAT5 phosphorylation [nM]","CD8 naïve EC50 (nM), STAT5 phosphorylation [nM]",Binder
10000,0.4,8880,10000,SEQ ID NO 38 (ligand) APTSSSTKKTQLQLEHLLLDLQMILNGINNYKNPKLTRMLTFKFYMPKKATELKHLQCLEEELKPLEEALRLAPSKNFHLRPRDLISDINVIVLELKGSETTFMCEYADETATIVEFLNRWITFSQSIISTLT
10000,18.3,4000,10000,SEQ ID NO 24 (ligand) APTSSSTKKTQLQLEHLLLDLQMILNGINNHKNPKLTRMLTFKFYMPKKATELKHLQCLEEELKPLEEVLRLAQSKNFHLRPRDLISDINVIVLELKGSETTFMCEYADETATIVEFLNRWITFSTSIISTLT
1000,2.44,1000,1000,SEQ ID NO 34 (ligand) APTSSSTKKTQLQLEHLLLDLQMILNGINNHKNPKLTRMLTFKFYMPKKATELKHLQCLEEELKPLEEVLNLAQSKNFHLRPRDLISDINVIVLELKGSETTFMCEYADETATIVEFLNRWITFSQSIISTLT
10000,1.11,5500,10000,SEQ ID NO 37 (ligand) APTSSSTKKTQLQLEHLLLDLQMILNGINNHKNPKLTRMLTFKFYMPKKATELKHLQCLEEELKPLEEALRLAPSKNFHLRPRDLISDINVIVLELKGSETTFMCEYADETATIVEFLNRWITFSQSIISTLT
10000,11.7,4000,10000,SEQ ID NO 36 (ligand) APTSSSTKKTQLQLEHLLLDLQMILNGINNHKNPKLTRMLTFKFYMPKKATELKHLQCLEEELKPLEEALNLAQSKNFHLRPRDLISDINVIVLELKGSETTFMCEYADETATIVEFLNRWITFSQSIISTLT
1820,0.49,1000,1880,SEQ ID NO 23 (ligand) APTSSSTKKTQLQLEHLLLDLQMILNGINNHKNPKLTRMLTFKFYMPKKATELKHLQCLEEELKPLEEVLRLAQSKNFHLRPRDLISDINVIVLELKGSETTFMCEYADETATIVEFLNRWITFSQSIISTLT
227,0.03,1.2,312,SEQ ID NO 20 (ligand) APTSSSTKKTQLQLEHLLLDLQMILNGINNHKNPKLTRMLTFKFYMPKKATELKHLQCLEEELKPLEEALRLAPSKNFHLRPRDLISNINVIVLELKGSETTFMCEYADETATIVEFLNRWITFSQSIISTLT
23.5,0.08,15.9,21.1,SEQ ID NO 18 (ligand) APTSSSTKKTQLQLEHLLLDLQMILNGINNYKNPKLTRMLTFKFYMPKKATELKHLQCLEEELKPLEEVLNLAQSKNFHFDPRDVVSNINVFVLELKGSETTFMCEYADETATIVEFLNRWITFSQSIISTLT
10000,15.7,7000,10000,SEQ ID NO 35 (ligand) APTSSSTKKTQLQLEHLLLDLQMILNGINNHKNPKLTRMLTFKFYMPKKATELKHLQCLEEELKPLEEVLNLAPSKNFHLRPRDLISDINVIVLELKGSETTFMCEYADETATIVEFLNRWITFSQSIISTLT
151,0.07,4.81,204,SEQ ID NO 21 (ligand) APTSSSTKKTQLQLEHLLLDLQMILNGINNHKNPKLTRMLTFKFYMPKKATELKHLQCLEEELKPLEEALNLAPSKNFHLRPRDLISNINVIVLELKGSETTFMCEYADETATIVEFLNRWITFSQSIISTLT
10000,91.9,5500,10000,SEQ ID NO 39 (ligand) APTSSSTKKTQLQLEHLLLDLQMILNGINNYKNPKLTRMLTFKFYMPKKATELKHLQCLEEELKPLEEVLRLAQSKNFHLRPRDLISDINVIVLELKGSETTFMCEYADETATIVEFLNRWITFSQSIISTLT
